Source: patent US20260240959A1, “METHODS FOR IN VIVO EDITING OF KLKB1” (INTELLIA THERAPEUTICS, INC., priority 2022, published 2026)
In the oligonucleotide strings, read from the 5' end, every base follows the letter of its sugar. An asterisk marks phosphorothioate; unmarked linkages are phosphodiester. Other units and linkages are bracketed, terminal groups are in braces. A string of capitals states the bases alone. m = 2'-O-methyl; r = 2'-OH (RNA)

Tested on: plasma kallikrein
Assay: Plasma kallikrein activity in cynomolgus monkeys
Type: in vivo, cynomolgus monkey
Settings: n=3
Description: Cynomolgus monkeys were treated in cohorts of n=3. This study was conducted with LNP formulations according to Example 1. […]. Animals were dosed at 1.5, 3, or 6 mg per kg doses based on total RNA cargo. Indel formation (percent editing) was measured by NGS. Total kallikrein activity and plasma kallikrein protein level were measured as described above. […]

B1: G013901: cynomolgus specific KLKB1 guide RNA (SEQ ID NO: 409); dosed as LNP formulation with Cas9 mRNA (nucleic acid)
guide: mG*mG*mA*rUrUrArCrArUrArUrGrGrGrArCrArCrArArGrUrUrUrUrArGrAmGmCmUmAmGmAmAmAmUmAmGmCrArArGrUrUrArArArArUrArArGrGrCrUrArGrUrCrCrGrUrUrArUrCrAmAmCmUmUmGmAmAmAmAmAmGmUmGmGmCmAmCmCmGmAmGmUmCmGmGmUmGmCmU*mU*mU*mU
- Kallikrein Activity (% of basal activity), Mean (1.5 mpk, Day 14): 31.1 % of basal activity
- Kallikrein Activity (% of basal activity), Mean (1.5 mpk, Day 28): 26.8 % of basal activity
- Kallikrein Activity (% of basal activity), Mean (1.5 mpk, Day 42): 19.8 % of basal activity
- Kallikrein Activity (% of basal activity), Mean (1.5 mpk, Day 56): 8.8 % of basal activity
- Kallikrein Activity (% of basal activity), Mean (1.5 mpk, Day 70): 6 % of basal activity
- Kallikrein Activity (% of basal activity), Mean (1.5 mpk, Day 84): 10.6 % of basal activity
- Kallikrein Activity (% of basal activity), Mean (1.5 mpk, Day 105): 23.3 % of basal activity
- Kallikrein Activity (% of basal activity), Mean (1.5 mpk, Day 119): 12.2 % of basal activity
- Kallikrein Activity (% of basal activity), Mean (1.5 mpk, Day 147): 11.9 % of basal activity
- Kallikrein Activity (% of basal activity), Mean (1.5 mpk, Day 161): 21 % of basal activity
- Kallikrein Activity (% of basal activity), Mean (1.5 mpk, Day 180): 19.2 % of basal activity
- Kallikrein Activity (% of basal activity), Mean (1.5 mpk, Day 238): 16.6 % of basal activity
- Kallikrein Activity (% of basal activity), Mean (1.5 mpk, Day 252): 19.1 % of basal activity
- Kallikrein Activity (% of basal activity), Mean (1.5 mpk, Day 266): 13.9 % of basal activity
- Kallikrein Activity (% of basal activity), Mean (1.5 mpk, Day 280): 17.5 % of basal activity
- Kallikrein Activity (% of basal activity), Mean (1.5 mpk, Day 294): 17 % of basal activity
- Kallikrein Activity (% of basal activity), Mean (1.5 mpk, Day 308): 18.2 % of basal activity
- Kallikrein Activity (% of basal activity), Mean (1.5 mpk, Day 326): 13.3 % of basal activity
- Kallikrein Activity (% of basal activity), Mean (1.5 mpk, Day 333): 15.9 % of basal activity
- Kallikrein Activity (% of basal activity), Mean (1.5 mpk, Day 347): 16.9 % of basal activity
- Kallikrein Activity (% of basal activity), Mean (1.5 mpk, Day 365): 24.1 % of basal activity
- Kallikrein Activity (% of basal activity), Mean (3 mpk, Day 7): 42.8 % of basal activity
- Kallikrein Activity (% of basal activity), Mean (3 mpk, Day 14): 15.9 % of basal activity
- Kallikrein Activity (% of basal activity), Mean (3 mpk, Day 28): 10.6 % of basal activity
- Kallikrein Activity (% of basal activity), Mean (3 mpk, Day 42): 8.6 % of basal activity
- Kallikrein Activity (% of basal activity), Mean (3 mpk, Day 56): 3.4 % of basal activity
- Kallikrein Activity (% of basal activity), Mean (3 mpk, Day 70): 3 % of basal activity
- Kallikrein Activity (% of basal activity), Mean (3 mpk, Day 84): 4.2 % of basal activity
- Kallikrein Activity (% of basal activity), Mean (3 mpk, Day 105): 6 % of basal activity
- Kallikrein Activity (% of basal activity), Mean (3 mpk, Day 119): 3.4 % of basal activity
- Kallikrein Activity (% of basal activity), Mean (3 mpk, Day 147): 4.5 % of basal activity
- Kallikrein Activity (% of basal activity), Mean (3 mpk, Day 161): 6 % of basal activity
- Kallikrein Activity (% of basal activity), Mean (3 mpk, Day 180): 4.7 % of basal activity
- Kallikrein Activity (% of basal activity), Mean (3 mpk, Day 238): 4.7 % of basal activity
- Kallikrein Activity (% of basal activity), Mean (3 mpk, Day 252): 8.2 % of basal activity
- Kallikrein Activity (% of basal activity), Mean (3 mpk, Day 266): 8.9 % of basal activity
- Kallikrein Activity (% of basal activity), Mean (3 mpk, Day 280): 6.8 % of basal activity
- Kallikrein Activity (% of basal activity), Mean (3 mpk, Day 294): 7.9 % of basal activity
- Kallikrein Activity (% of basal activity), Mean (3 mpk, Day 308): 7.4 % of basal activity
- Kallikrein Activity (% of basal activity), Mean (3 mpk, Day 326): 5.5 % of basal activity
- Kallikrein Activity (% of basal activity), Mean (3 mpk, Day 333): 6.8 % of basal activity
- Kallikrein Activity (% of basal activity), Mean (3 mpk, Day 347): 4.1 % of basal activity
- Kallikrein Activity (% of basal activity), Mean (3 mpk, Day 365): 10 % of basal activity
- Kallikrein Activity (% of basal activity), Mean (6 mpk, Day 7): 18.2 % of basal activity
- Kallikrein Activity (% of basal activity), Mean (6 mpk, Day 14): 5.3 % of basal activity
- Kallikrein Activity (% of basal activity), Mean (6 mpk, Day 28): 3.9 % of basal activity
- Kallikrein Activity (% of basal activity), Mean (6 mpk, Day 42): 3.6 % of basal activity
- Kallikrein Activity (% of basal activity), Mean (6 mpk, Day 56): 4.2 % of basal activity
- Kallikrein Activity (% of basal activity), Mean (6 mpk, Day 70): 3.9 % of basal activity
- Kallikrein Activity (% of basal activity), Mean (6 mpk, Day 84): 4.7 % of basal activity
- Kallikrein Activity (% of basal activity), Mean (6 mpk, Day 105): 4.7 % of basal activity
- Kallikrein Activity (% of basal activity), Mean (6 mpk, Day 119): 3 % of basal activity
- Kallikrein Activity (% of basal activity), Mean (6 mpk, Day 147): 3 % of basal activity
- Kallikrein Activity (% of basal activity), Mean (6 mpk, Day 161): 5.6 % of basal activity
- Kallikrein Activity (% of basal activity), Mean (6 mpk, Day 180): 5 % of basal activity
- Kallikrein Activity (% of basal activity), Mean (6 mpk, Day 238): 3.2 % of basal activity
- Kallikrein Activity (% of basal activity), Mean (6 mpk, Day 252): 3.1 % of basal activity
- Kallikrein Activity (% of basal activity), Mean (6 mpk, Day 266): 2.7 % of basal activity
- Kallikrein Activity (% of basal activity), Mean (6 mpk, Day 280): 3 % of basal activity
- Kallikrein Activity (% of basal activity), Mean (6 mpk, Day 294): 2.9 % of basal activity
- Kallikrein Activity (% of basal activity), Mean (6 mpk, Day 308): 3 % of basal activity
- Kallikrein Activity (% of basal activity), Mean (6 mpk, Day 326): 3.5 % of basal activity
- Kallikrein Activity (% of basal activity), Mean (6 mpk, Day 333): 3.3 % of basal activity
- Kallikrein Activity (% of basal activity), Mean (6 mpk, Day 347): 2.9 % of basal activity
- Kallikrein Activity (% of basal activity), Mean (6 mpk, Day 365): 3.4 % of basal activity
